Consider 11 molecules from publication PMC5387809, “The Combination of Computational and Biosensing Technologies for Selecting Aptamer against Prostate Specific Antigen”.

The target in the first data set is T1, prostate specific antigen (PSA) (human, UniProt P07288 25-261). The data set is described as follows: QCM; 2 ng/ml PSA injected; PBS (10 mM Na2HPO4, 137 mM NaCl, 2 mM KH2PO4, 2.7 mM KCl), pH 7.4; SPR at 25 C, 50 ul/min; PSA 2 ng/ml; DNA/PEG thiol SAM on gold; QCM temperature not stated. The conditions noted are these: protein: commercial; hairpin (predicted).
T1 sequence (P07288 25-261): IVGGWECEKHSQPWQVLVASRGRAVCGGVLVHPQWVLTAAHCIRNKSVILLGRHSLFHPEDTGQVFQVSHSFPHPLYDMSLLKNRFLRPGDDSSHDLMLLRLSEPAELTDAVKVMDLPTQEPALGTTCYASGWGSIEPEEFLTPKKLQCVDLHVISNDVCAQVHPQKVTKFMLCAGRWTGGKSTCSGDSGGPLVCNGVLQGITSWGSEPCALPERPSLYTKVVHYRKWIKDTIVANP
Turning to TTTTTACGCACCGGGTACGTTTTTTGGCCTTT (ssDNA, 5' C6 thiol) [PSAG212], the binding signal was 59.5 ± 5.8 Hz (frequency drop). With TTTTTAATATCCGGGGAACGTCGTGGCCCTTT (ssDNA, 5' C6 thiol) [PSAG28], the binding signal is 166 ± 6.7 Hz (frequency drop). With TTTTTAATATCCGGGTTCCCGGTTGTCTCTTT (ssDNA, 5' C6 thiol) [PSAG24], the binding signal was 131 ± 4.9 Hz (frequency drop).

Another data set deals with T1, prostate specific antigen (PSA). The data set is described as follows: SPR; ka 3.37e3 M-1s-1, kd 12.34e-3 s-1; PBS (10 mM Na2HPO4, 137 mM NaCl, 2 mM KH2PO4, 2.7 mM KCl), pH 7.4; SPR at 25 C, 50 ul/min; PSA 2 ng/ml; DNA/PEG thiol SAM on gold; QCM temperature not stated. The settings on record: protein: commercial; hairpin (predicted).
Consider TTTTTAATATCCGGGTTCCCGGTTGTCTCTTT (ssDNA, 5' C6 thiol) [PSAG24], for which the Ka is 0.27 ± 0.04 10^6 M-1.

For the next data set the target is unchanged. Description: QCM; 2 ng/ml PSA injected; PBS (10 mM Na2HPO4, 137 mM NaCl, 2 mM KH2PO4, 2.7 mM KCl), pH 7.4; SPR at 25 C, 50 ul/min; PSA 2 ng/ml; DNA/PEG thiol SAM on gold; QCM temperature not stated. The settings on record: protein: commercial; hairpin (predicted). The source holds these as a separate data set.
In the case of TTTTTACGCACCGGGTACGTTTTTTGGCCTTT (ssDNA, 5' C6 thiol) [PSAG119], the binding signal is 91.3 ± 9.7 Hz (frequency drop). Consider TTTTTAATATCCGGGTACGTTTTTTGGCCTTT (ssDNA, 5' C6 thiol) [PSAG117], for which the binding signal is 82.9 ± 5.8 Hz (frequency drop). With TTTTTCTGGTCCGGGTACGTTTTTTGGCCTTT (ssDNA, 5' C6 thiol) [PSAG17], the binding signal is 37.3 ± 1.9 Hz (frequency drop). For TTTTTCTGTTGCCCGGAACGTCGTGGCCCTTT (ssDNA, 5' C6 thiol) [PSAG11], the binding signal was 19.2 ± 1.7 Hz (frequency drop). TTTTTACTTAATGCGGAACGTCGTGGCCCTTT (ssDNA, 5' C6 thiol) [PSAG112]: the binding signal is 71.7 ± 1.3 Hz (frequency drop). Same read-out and setting: the result for TTTTTCTGGAATGATTTCCCGGTTGTCTCTTT (ssDNA, 5' C6 thiol) [PSAG15] reads 108 ± 14 Hz (frequency drop); that for TTTTTCCGCACAACTTGCCATCAAATATCTTT (ssDNA, 5' C6 thiol) [PSAG118], 24.9 ± 3.9 Hz (frequency drop); that for TTTTTCCGCACCGGGTACGGTCGTGGCCCTTT (ssDNA, 5' C6 thiol) [PSAG114], 63 ± 5.4 Hz (frequency drop).

For another data set the target is unchanged. The data set is described as follows: SPR; ka 3.11e3 M-1s-1, kd 11.23e-3 s-1; PBS (10 mM Na2HPO4, 137 mM NaCl, 2 mM KH2PO4, 2.7 mM KCl), pH 7.4; SPR at 25 C, 50 ul/min; PSA 2 ng/ml; DNA/PEG thiol SAM on gold; QCM temperature not stated. The settings on record: protein: commercial; hairpin (predicted).
TTTTTACGCACCGGGTACGTTTTTTGGCCTTT (ssDNA, 5' C6 thiol) [PSAG212]: the Ka was 0.28 ± 0.03 10^6 M-1.
